Patent US20090297524A1 (DOMANTIS, published 2009)

T1: Recombinant human CD40L (human, UniProt P29965 108-261, limits assumed)
T1 construct: also called CD40 ligand
T1 sequence (looked up): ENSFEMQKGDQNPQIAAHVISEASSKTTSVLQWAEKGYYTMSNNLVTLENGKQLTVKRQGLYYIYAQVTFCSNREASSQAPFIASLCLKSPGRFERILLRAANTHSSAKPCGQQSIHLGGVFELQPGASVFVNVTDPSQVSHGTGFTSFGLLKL

B1: DOM-55 (other)
VH: EVQLLESGGGLVQPGGSLRLSCAASGFTFARYEMGWVRQAPGKGLEWVSRITAQGLGTYYADSVKGRFTISRDNSKNTLYLQMNSLRAEDTAVYYCAKYLTDFSSGHQEFDYWGQGTLVTVSS
notes: VH dAb
B2: DOM-81 (other)
VH: EVQLLESGGGLVQPGGFLRLSCAASGFTFELYPMAWVRQAPGKGLEWVSSISPVGFLTYYADSVKGRFTISRDNSKNTLYLQMNSLRAEDTAVYYCAKGHEGSYTPRSAFDYWGQGTLVTVSS
notes: VH dAb
B3: DOM-69 (other)
VH: EVQLLESGGGLVQPGGSLRLSCAASGFTFLDYGMAWVRQAPGKGLEWVSAISPLGLSTYYADSVKSRFTISRDNSKNTLYLQMNSLRAEDTAVYYCAKEVRVGRGVHPPKFDYWGQGTLVTVSS
notes: VH dAb
B4: DOM.88 (other)
VL: DIQMTQSPSSLSASVGDRVTITCRASQEIVEDLYWYQQKPGKAAKLLIYGASWLQSGVPSRFSGSGSGTDFTLTISSLQPEDFATYYCQQTRRRPYTFGQGTKVEIKR
notes: Vk dAb
B5: DOM-85 (other)
VH: EVQLLESGGGLVQPGGSLRLSCAASGFTFEQYDMRWVRQAPGKGLEWVSWIDEAGHETYYADSVKGRFTISRDNSRNTLYLQMNSLRAEDTAVYYCAKGMDGFDYWGQGTLVTVSS
notes: VH dAb
B6: DOM-70 (other)
VH: EVQLLESGGGLVQPGGSLRLSCAASGFTFENYAMSWVRQAPGKGLEWVSTIAPLGVPTYYADSVKGRFTISRDNSKNTLYLQMNSLRAEDTAVYYCAKKKVGAWLQSRSFDYWGQGTLVTVSS
notes: VH dAb
B7: DOM-71 (other)
VH: EVQLLESGGGLVQPGGSLRLSCAASGFTFEGYPMSWVRQAPGKGLEWVSTISPLGPDTYYADSVKGRFTISRDNSKNTLYLQMNSLRAEDTAVYYCAKLLMGEYLNSRTFDYWGQGTLVTVSS
notes: VH dAb
B8: DOM-75 (other)
VH: EVQLLESGGGLVQPGGSLRLSCAASGFTFLQYPMGWVRQAPGKGLEWVSTISPVGLTTYYADSVKGRFTISRDNSKNTLYLQMNSLRAEDTAVYYCAKLFEGSRIQRDVGFDYWGQGTLVTVSS
notes: VH dAb
B9: DOM-56 (other)
VH: EVQLLESGGGLVQPGGSLRLSCAASGFTFNDYTMGWVRQAPGKGLEWVSWIHGTGGQTYYADSVKGRFTISRDNSKNTLYLQMNSLRAEDTAVYYCAKALADRSGGVVEFDYWGQGTLVTVSS
notes: VH dAb
B10: DOM-82 (other)
VH: EVQLLESGGGLVQPGGSLRLSCAASGFTFVAYPMAWVRQAPGKGLEWVSTIAPLGGNTYYADSVKGRFTISRDNSKNTLYLQMNSLRAEDTAVYYCAKRPEGLQIDSQNFDYWGQGTLVTVSS
notes: VH dAb
B11: DOM-51 (other)
VL: DIQMTQSPSSLSASVGDRVTITCRASQPIVDELDWYQQKPGKAPKLLIYAASILQSGVPSRFSGSGSGTDFTLTISSLQPEDFATYYCHQWSTYPTTFGQGTKVEIKR
notes: Vk dAb
B12: DOM-87 (other)
VL: DIQMTQSPSSLSASVGDRVTITCRASQDIDESLMWYQQKPGKAPRLLIYGVSYLQSGVPSRFSGSGSGTDFTLTISSLQPEDFATYYCQQRWKAPFTFGQGTKVEIKR
notes: Vk dAb
B13: DOM-61 (other)
VH: EVQLLESGGGLVQPGGSLRLSCAASGFTFAAYAMTWVRQAPGKGLEWVSYISPNGTATYYADSVKGRFTISRDNSKNTLYLQMNSLRAEDTAVYYCAEYVGMRWNSFDYWGQGTLVTVSS
notes: VH dAb
B14: DOM-59 (other)
VH: EVQLLESGGGLVQPGGSLRLSCAASGFTFLDYAMGWVRQAPGKGLEWVSTISPMGMGTYYADSVKGRFTISRDNSKNTLYLQMNSLRAEDTAVYYCAKSSAISFTSDISNFDYWGQGTLVTVSS
notes: VH dAb
B15: DOM-53 (other)
VL: DIQMTQSPSSLSASVGDRVTITCRASQAIYGGLRWYQQKPGKAPKLLIYGESMLQSGVPSRFSGSGSGTDFTLTISSLHPEDFATYYCQQVYHKPFTFGQGTKVEIKR
notes: Vk dAb
B16: DOM-54 (other)
VH: EVQLLESGGGLVQPGGSLRLSCAASGFTFTAYRMAWVRQAPGKGLEWVSWISPSGSGTYYADSVKGRFTISRDNSKNTLYLQMNSLRAEDTAVYYCAKTLTDSPSGHYEFDYWGQGTLVTVSS
notes: VH dAb
B17: DOM-48 (other)
VL: DIQMTQSPSSLSASVGDRVTITCRASQWIGDSLSWYQQKPGKAPKLLIYFGSYLQNGVPSRFSGSGSGTDFTLTISSLQPEDFATYYCQQYMITPTTFGQGTKVEIKR
notes: Vk dAb
B18: DOM-50 (other)
VL: DIQMTQSPSSLSASVGDRVTITCRASQWIGDSLSWYQQKPGKAPKLLIYFGSYLQSGVPSRFSGSGSGTDFTLTISSLQPEDSATYYCQQYQYVPSTFGQGTKVEIKQ
notes: Vk dAb
B19: DOM-72 (other)
VH: EVQLLESGGGLVQPGGSLRLSCAASGFTFEAYPMSWVRQAPGKGLEWVSSISPLGLWTYYADSVKGRFTISRDNSKNTLYLQMNSLRAEDTAVYYCAKLSAGAETHVYRLFDYWGQGTLVTVSS
notes: VH dAb
B20: DOM-10 (other)
VH: EVQLLESGGGLVQPGGSLRLSCAASGFTFIAYDMSWVRQAPGKGLEWVSWIDEWGLQTYYADSVKGRFTISRDNSKNTLYLQMNSLRAEDTAVYYCAKKTPEEFDYWGQGTLVTVSS
notes: VH dAb
B21: DOM-2 (other)
VH: EVQLLESGGGLVQPGGSLRLSCAASGFTFSDYEMMWVRQAPGKGLEWVSTITSDGISTYYADSVKGRFTIFRDNSKNTLYLQMNSLRAEDTAVYYCAKSGRFFDYWGQGTLVTVSS
notes: VH dAb
B22: DOM-24 (other)
VH: EVQLLESGGGLVQPGGSLRLSCAASGFTFSNYQMAWVRQAPGKGLEWVSSITSEGGSTYYADSVKGRFTISRDNSKNTLYLQMNSLRAEDTAVYYCAKPGKNFDYWGQGTLVTVSS
notes: VH dAb; also called DOM8-24; monomeric DOM-24
B23: DOM-7 (other)
VH: EVQLLESGGGLVQPGGSLRLSCAASGFTFNLYEMTWVRQAPGKGLEWVSSITSDGVSTYYADSVKGRFTISRDNSKNTLYLQMNSLRAEDTAVYYCAKAGVIFDYWGQGTLVTVSS
notes: VH dAb
B24: DOM-4 (other)
VH: EVQLLESGGGLVQPGGSLRLSCAASGFTFDNYEMTWVRQAPGKGLEWVSSITSDGTSTYYADSVKGRFTISRDNSKNTLYLQMNSLRAEDTAVYYCAKPNPPFDYWGQGTLVTVSS
notes: VH dAb
B25: DOM-20 (other)
VH: EVQLLESGGGLVQPGGSLRLSCAASGFTFSGYQMAWVRQAPGKGLEWVSGISSEGLTTYYADSVKGRFTISRDNSKNTLYLQMNSLRAEDTAVYYCAKLGRRFDYWGQGTLVTVSS
notes: VH dAb
B26: DOM-5 (other)
VH: EVQLLESGGGLVQPGGSLRLSCAASGFTFDGYEMAWVRQAPGKGLEWVSSITSDGTSTYYADSVKGRFTISRDNSKNTLYLQMNSLRAEDTAVYYCAKPGLRFDYWGQGTLVTVSS
notes: VH dAb
B27: DOM-30 (other)
VH: EVQLLESGGGLVQPGGSLRLSCAASGFTFARYQMAWVRQAPGKGLEWVSTISDDGDSTYYADSVKGRFTISRDNSKNTLYLQMNSLRAEDTAVYYCAKLDKLFDYWGQGTLVTVSS
notes: VH dAb
B28: DOM-31 (other)
VH: EVQLLESGGGLVQPGGSLRLSCAASGFTFEEYQMAWVRQAPGKGLEWVSTISDDGSSTYYADSVKGRFTISRDNSKNTLYLQMNSLRAEDTAVYYCAKPDLYFDYWGQGTLVTVSS
notes: VH dAb
B29: DOM-27 (other)
VH: EVQLLESGGGLVQPGGSLRLSCAASGFTFNLYEMTWVRQAPGKGLEWVSSITSDGVSTYYADSVKGRFTISRDNSKNTLYLQMNSLRAEDTAVYYCAKPDSPFDYWGQGTLVTVSS
notes: VH dAb
B30: DOM-77 (other)
VH: EVQLLESGGGLVQPGGSLRLSCAASGFTFEEYGMAWVRQAPGKGLEWVSTISPLGISTYYADSVKGRFTISRDNSKNTLYLQMNSLRAEDTAVYYCAKHATSQESLRSFDYWGQGTLVTVSS
notes: VH dAb
B31: DOM-8 (other)
VL: DIQMTQSPSSLSASVGDRVTITCRASQFIDTSLEWYQQKPGKAPKLLIYDGSHLQSGVPSRFSGSGSGTDFTLTISSLQPEDLATYYCQQYWVLPLTFGQGTKVEIKR
notes: Vk dAb
B32: DOM8-24cys (other)
VH: ASTEVQLLESGGGLVQPGGSLRLSCAASGFTFSNYQMAWVRQAPGKGLEWVSSITSEGGSTYYADSVKGRFTISRDNSKNTLYLQMNSLRAEDTAVYYCAKPGKNFDYWGQGTLVTVSC
notes: VH dAb DOM8-24 with an engineered C-terminal cysteine (last Ser replaced by Cys); also called unmodified protein

target: T1, Recombinant human CD40L; assay: CD40L/CD40-Fc receptor binding assay;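 further: plate assay with coated human CD40-Fc, bound ligand detected via HRP anti-biotin antibody and TMB, OD at 450 nm, lower signal indicates stronger inhibition by dAb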

Does B1 bind?
Result: binds

Does B2 bind?
Result: binds

Does B3 bind?
Result: binds

Does B4 bind?
Result: binds

Does B5 bind?
Result: binds

Does B6 bind?
Result: binds

Does B7 bind?
Result: binds

Does B8 bind?
Result: binds

Does B9 bind?
Result: binds

Does B10 bind?
Result: binds

Does B11 bind?
Result: binds

Does B12 bind?
Result: binds

Does B13 bind?
Result: binds

Does B14 bind?
Result: binds

Does B15 bind?
Result: binds

Does B16 bind?
Result: binds

Does B17 bind?
Result: binds

Does B18 bind?
Result: binds

Does B19 bind?
Result: binds

target: T1, Recombinant human CD40L; assay: CD40L receptor binding assay: dAb inhibits CD40L (3 ng/ml) binding to coated CD40/Fc
Experimental: A 96 well Nunc Maxisorp assay plate was coated overnight at 4° C. with 100 μl per well of recombinant human CD40/Fc (R&D Systems) at 0.5 μg/ml in carbonate buffer. The plate was washed 3 times with 300 μl of 0.05% Tween/PBS and 3 times with 300 μl of PBS using a Tecan plate washer. The wells were blocked using 200 μl of PBS containing 2% (w/v) BSA and incubated for a minimum of 1 h at room temperature. The wells were washed as above, then 50 μl of purified dAb protein (or unpurified supernatant containing dAb from a micro-culture expression) was added to each well.
The plate was washed as described above, then 100 μl HRP conjugated anti-biotin antibody (1:5000 dilution in diluent) added to each well and the plate incubated for 1 hr at room temperature. The plate was washed again as described above using a Tecan plate washer and the assay developed using 100 μl of SureBlue 1-Component TMB MicroWell Peroxidase solution (the plate was left at room temperature for up to 20 min). The reaction was stopped by the addition of 100 μl M hydrochloric acid. The OD₄₅₀ₙₘ of the plate was assayed within 30 minutes of acid addition. The OD₄₅₀ₙₘ is proportional to the amount of bound streptavidin-HRP conjugate, therefore the greater the degree of dAb inhibition the lower the OD₄₅₀ₙₘ of the resulting signal.

With B20 as the binder, how does the IC50 read?
Its IC50 is 50 nM.

Which IC50 does the source give for B21 here?
The IC50 was 800 nM.

B22 was tested. Which IC50 did it give?
Its IC50 is 0.417 nM.

With B23 as the binder, how does the IC50 read?
Its IC50 is 1500 nM.

For B24, which IC50 is on record?
The IC50 was 100 nM.

With B25 as the binder, how does the IC50 read?
The IC50 was 8 nM.

For B26, which IC50 is on record?
Its IC50 is 3 nM.

Which IC50 does the source give for B27 here?
The IC50 was 8 nM.

How did the IC50 turn out when B28 was run?
Its IC50 is 8 nM.

B29 was tested. Which IC50 did it give?
Its IC50 is roughly 100 nM.

Which IC50 does the source give for B30 here?
The IC50 was 40 nM.

For B31, which IC50 is on record?
Its IC50 is 900 nM.

target: T1, Recombinant human CD40L; assay: CD40L receptor binding assay (RBA, ELISA): dAb titrated against 3 ng/ml CD40L binding to plate-coated CD40/Fc
Experimental: A 96 well Nunc Maxisorp assay plate was coated overnight at 4° C. with 100 μl per well of recombinant human CD40/Fc (R&D Systems) at 0.5 μg/ml in carbonate buffer. The plate was washed 3 times with 300 μl of 0.05% Tween/PBS and 3 times with 300 μl of PBS using a Tecan plate washer. The wells were blocked using 200 μl of PBS containing 2% (w/v) BSA and incubated for a minimum of 1 h at room temperature. The wells were washed as above, then 50 μl of purified dAb protein was added to each well. […] The plate was washed as described above, then 100 μl HRP conjugated anti-biotin antibody (1:5000 dilution in diluent) added to each well and the plate incubated for 1 hr at room temperature. The plate was washed again as described above using a Tecan plate washer and the assay developed using 100 μl of SureBlue 1-Component TMB MicroWell Peroxidase solution (the plate was left at room temperature for up to 20 min). The reaction was stopped by the addition of 100 μl M hydrochloric acid. The OD₄₅₀ₙₘ of the plate was assayed within 30 minutes of acid addition. The OD₄₅₀ₙₘ is proportional to the amount of bound streptavidin-HRP conjugate, therefore the greater the degree of dAb inhibition the lower the OD₄₅₀ₙₘ of the resulting signal.

For B32, which “IC50 (read off the curve)” value is on record?
Its value is roughly 0.6 nM.
